In patent publication US20090181018A1 (Eli Lilly, published 2009):
Residue numbers refer to the chain shown, from its start. Numbers in names are those of the source. Values belong to the binder of their own block, whether it stands above or below them.

Tests used:
[1] = molecular target: T1, human des-acyl ghrelin (human); assay: SPR (BIAcore 2000), Mab amine-coupled to CM5 chip, des-acyl ghrelin as analyte, about 25 C
T1 construct: also called unacylated human ghrelin
Protocol: (§1) Except where noted, all reagents and materials are purchased from BIAcore® AB (Uppsala, Sweden). All measurements are performed at about 25° C. All samples containing human ghrelin (full length, C-8 acylated or des-acyl) and anti-ghrelin Mabs are diluted in HBS-EP buffer (150 mM sodium chloride, 3 mM EDTA, 0.005% (w/v) surfactant P-20, and 10 mM HEPES, pH 7.4). For all of the Mabs, the antibody is directly coupled to a CM5 chip using the amine-coupling chemistry described below, aiming for a surface density of between 800-1000 response units (RU). Flow cells (1-4) are activated for 7 minutes with a 1:1 mixture of 0.1 M N-hydroxysuccinimide and 0.1 M 3-(N,N-dimethylamino)propyl-N-ethylcarbodiimide at a flow rate of 10 μl/min. The Mab is diluted to 10 μg/mL in 10 mM sodium acetate, pH 4.5, and manually injected over all four flow cells at a flow rate of 10 μl/min. The surface density is monitored, and additional capture antibody is injected as needed to each individual cell until all flow cells reach a surface density of 800-1000 RU. Surfaces are blocked with a seven minute injection of 1 M ethanolamine-HCl, pH 8.5(10 μl/min). To ensure complete removal of any noncovalently bound capture antibody, 15 μl of 10 mM glycine, pH 1.5, are injected twice. Running buffer for kinetic experiments is HBS-EP buffer (150 mM sodium chloride, 3 mM EDTA, 0.005% (w/v) surfactant P-20, and 10 mM HEPES, pH 7.4).
(§2) Collection of kinetic binding data is performed at maximum flow rate (100 μl/min) and a low surface density to minimize mass transport effects. Each analysis cycle consists of: (i) 200 μl injection (2 min.) of ghrelin (concentration range of 50 nM to 0.39 nM in 2-fold dilution increments) over all four flow cells with flow cell 1 as the reference flow cell; (ii) 20 min. dissociation (buffer only flow); (iii) regeneration of chip surface with a 15 sec injection of 10 mM glycine, pH 1.5; and (iv) a 2 min. stabilization time before the start of the next cycle. The signal is monitored as flow cell 2 minus flow cell 1, flow cell 3 minus flow cell 1, and flow cell 4 minus flow cell 1. Samples and a buffer blank are injected in duplicate in a random order. Data are processed using BIAevaluation v.4.1 software and data are fit to a 1:1 binding model in either BIAevaluation v.4.1 or CLAMP global analysis software.

[2] = molecular target: T2, C-8 acylated human ghrelin (1-28) (human, n-octanoyl (C8) group on Ser3); assay: SPR (BIAcore 2000), Mab amine-coupled to CM5 chip, ghrelin as analyte, about 25 C
T2 construct: 28-residue ghrelin, octanoylated at Ser3; the analyte in SPR and the agonist in the FLIPR assay; also called C8 acylated ghrelin; full length, C-8 acylated human ghrelin
T2 sequence (peptide, as listed by the source): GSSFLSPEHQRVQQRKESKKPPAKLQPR
Protocol: as §1, §2

[3] = molecular target: T2, C-8 acylated human ghrelin (1-28); assay: SPR (BIAcore 2000), Fab captured by goat anti-human kappa, ghrelin as analyte, about 25 C
Protocol: The affinity (KD) of humanized/optimized anti-ghrelin Fabs disclosed in Example 1 for C-8 acylated human ghrelin (1-28) is measured using a BIAcore™ 2000 instrument containing a CM5 sensor chip. Except where noted, all reagents and materials are purchased from BIAcore™ AB (Uppsala, Sweden). Measurements are performed at about 25° C. Samples containing human ghrelin are dissolved in HBS-EP buffer (150 mM sodium chloride, 3 mM EDTA, 0.005% (w/v) surfactant P-20, and 10 mM HEPES, pH 7.4). A capture antibody, goat anti-mouse Kappa (Southern Biotechnology, Inc.) for the D4 and D4 7.1 Fabs, and goat anti-human kappa (Jackson ImmunoResearch) for all other Fabs, hereafter termed “capture antibody,” is immobilized onto flow cells using amine-coupling chemistry. Flow cells (1-4) are activated for 7 minutes with a 1:1 mixture of 0.1 M N-hydroxysuccinimide and 0.1 M 3-(N,N-dimethylamino)propyl-N-ethylcarbodiimide at a flow rate of 10 μl/min. Goat anti-mouse Kappa or goat anti-human kappa (30 μg/mL in 10 mM sodium acetate, pH 4.5) is manually injected over all 4 flow cells at a flow rate of 10 μl/min. The surface density is monitored and additional capture antibody is injected if needed to individual cells until all flow cells reach a surface density of 4500-5000 response units (RU). Surfaces are blocked with a 7 minute injection of 1 M ethanolamine-HCl, pH 8.5 (10 μl/min). To ensure complete removal of any noncovalently bound capture antibody, 15 μl of 10 mM glycine, pH 1.5, is injected twice. Running buffer used for kinetic experiments contains 10 mM HEPES, pH 7.4, 150 mM NaCl, 0.005% P20.
Collection of kinetic binding data is performed at maximum flow rate (100 μl/min) and a low surface density to minimize mass transport effects. Each analysis cycle consists of: (i) capture of 300-350 RU of Fabs (BioSite) by injection of 5-10 μl of 5 μg/ml solution over flow cell 2, 3 and 4 for different Fabs at a flow rate of 10 μl/min., (ii) 200 μl injection (2 min.) of human ghrelin (concentration range of 50 nM to 0.39 nM in 2-fold dilution increments) over all 4 flow cells with flow cell 1 as the reference flow cell, (iii) 20 min. dissociation (buffer flow), (iv) regeneration of capture antibody surface with a 15 seq injection of 10 mM glycine, pH 1.5, (v) a 30 sec blank injection of running buffer, and (vi) a 2 min. stabilization time before the start of the next cycle.

[4] = molecular target: T2, C-8 acylated human ghrelin (1-28); assay: SPR (BIAcore 2000), half-life of the complex
Protocol: The affinity (KD) of humanized/optimized anti-ghrelin Fabs disclosed in Example 1 for C-8 acylated human ghrelin (1-28) is measured using a BIAcore™ 2000 instrument containing a CM5 sensor chip. Except where noted, all reagents and materials are purchased from BIAcore™ AB (Uppsala, Sweden). Measurements are performed at about 25° C. Samples containing human ghrelin are dissolved in HBS-EP buffer (150 mM sodium chloride, 3 mM EDTA, 0.005% (w/v) surfactant P-20, and 10 mM HEPES, pH 7.4). A capture antibody, goat anti-mouse Kappa (Southern Biotechnology, Inc.) for the D4 and D4 7.1 Fabs, and goat anti-human kappa (Jackson ImmunoResearch) for all other Fabs, hereafter termed “capture antibody,” is immobilized onto flow cells using amine-coupling chemistry. Flow cells (1-4) are activated for 7 minutes with a 1:1 mixture of 0.1 M N-hydroxysuccinimide and 0.1 M 3-(N,N-dimethylamino)propyl-N-ethylcarbodiimide at a flow rate of 10 μl/min. Goat anti-mouse Kappa or goat anti-human kappa (30 μg/mL in 10 mM sodium acetate, pH 4.5) is manually injected over all 4 flow cells at a flow rate of 10 μl/min. The surface density is monitored and additional capture antibody is injected if needed to individual cells until all flow cells reach a surface density of 4500-5000 response units (RU). Surfaces are blocked with a 7 minute injection of 1 M ethanolamine-HCl, pH 8.5 (10 μl/min). […]

[5] = molecular target: T2, C-8 acylated human ghrelin (1-28); assay: SPR (BIAcore 2000), half-life of the complex calculated from koff
Protocol: as §1, with “Surfaces are blocked with a seven minute injection of 1 M ethanolamine-HCl, pH 8.5(10 μl/min). To ensure complete removal of any noncovalently bound capture antibody, 15 μl of 10 mM glycine, pH 1.5, are injected twice. Running buffer for kinetic experiments is HBS-EP buffer (150 mM sodium chloride, 3 mM EDTA, 0.005% (w/v) surfactant P-20, and 10 mM HEPES, pH 7.4).” left out
Collection of kinetic binding data is performed at maximum flow rate (100 μl/min) and a low surface density to minimize mass transport effects. […] The signal is monitored as flow cell 2 minus flow cell 1, flow cell 3 minus flow cell 1, and flow cell 4 minus flow cell 1. […]

[6] = molecular target: T2, C-8 acylated human ghrelin (1-28); assay: cell-based or functional assay

t1/2 [4]: 1 min
Kd [3]: 1000 pM
koff [3]: 0.00875 s⁻¹
B4: Fab T32Y (Fab, V domains shown)
VH: QVQLVQSGAEVKKPGASVKVSCKVSGYTFTSYWMHWVRQAPGKGLEWMGYIDPSTGYTEYTQKFKDRVTMTEDTSTDTAYMELSSLRSEDTAVYYCATDGYDEDYWGQGTTVTVSS
VL: DIVMTQSPLSLPVTPGEPASISCRSSDSLGHSSGHTYLSWYLQKPGQSPGLLIYKVSNRFDGVPDRFSGSGSGTDFTLKISRVEAEDVGVYYCSQSTLVPWTFGQGTKLEIK
notes: The Fab was captured by goat anti-human kappa

t1/2 [5]: 201 min
koff [2]: 5.74e-05 s⁻¹
koff [1]: 6.67e-05 s⁻¹
B5: Mab A5 (antibody, rat IgG1, V domains shown)
VH: B4 VH with Y32T, E103Y
VL: DIVMTQSPLSLPVTPGEPASISCRSSDHLGHSTGYTYLSWYLQKPGQSPGLLIYKVSNRFDGVPDRFSGSGSGTDFTLKISRVEAEDVGVYYCSQSTLVPWTFGQGTKLEIKD

IC50, in vitro FLIPR calcium assay (intracellular calcium in AV12 cells expressing GHS-R1a) [6]: 1120 pM
Kd [1]: 176 pM
B6: Mab D27Q (antibody, rat IgG1, V domains shown)
VH: B4 VH with Y32T
VL: B5 VL with D27Q, H28S, T33S, Y35H

t1/2 [5]: 1 min
Kd [2]: 400 pM
koff [2]: 0.0169 s⁻¹
kon [2]: 4.24e+07 M⁻¹ s⁻¹
B7: Mab S34H (antibody, rat IgG1, V domains shown)
VH: B4 VH with Y32T
VL: B5 VL with H28S, T33S, Y35H, S39H

t1/2 [4]: 43 min
Kd [3]: 43 pM
koff [3]: 0.00027 s⁻¹
kon [3]: 6.34e+06 M⁻¹ s⁻¹
B8: Fab A2 (Fab, V domains shown)
VH: B4 VH with Y32T, E103F
VL: B4 VL with S33T, H35F
notes: The Fab was captured by goat anti-human kappa, so it has a human kappa light chain

More lines, now with the values behind:

B1: Mab D52N (antibody, rat IgG1, V domains shown)
VH: B4 VH with Y32T, D52N
VL: B5 VL with H28S, T33S, Y35H
Kd [1]: 1050 pM
koff [1]: 0.0343 s⁻¹
kon [1]: 3.26e+07 M⁻¹ s⁻¹

B2: Mab A4 (antibody, V domains shown)
VH: B4 VH with Y32T, E103F
VL: B5 VL with H28S, Y35F
Kd [2]: 74 pM
kon [2]: 4.44e+06 M⁻¹ s⁻¹
kon [1]: 4.56e+06 M⁻¹ s⁻¹

B3: Fab S28D (Fab, V domains shown)
VH: B4 VH with Y32T
VL: B4 VL with S33D, H35N
notes: as for B4
kon [3]: 3e+07 M⁻¹ s⁻¹
